Measured values: publication PMC11731779, “Transferrin Disassociates TCR from CD3 Signaling Apparatus to Promote Metastasis” (Research, 2025)
Each block holds one binder with its values, some of them ahead of it.

Experiments:
transferrin [1] = target: T1, transferrin (UniProt P02787 20-698); test: not stated; DK8 binding to transferrin, 'binding response value' and KD (Fig. S9C and E); method not given
T1 construct: transferrin (serotransferrin); One molecule for the transferrin immobilised for SPR, added to cells (co-IP with intervention, FRET) and co-precipitated from human PBMC / T cells; Methods are in the supplement; also called Tf

transferrin [2] = target: T1, transferrin; test: SPR; Biacore T200; transferrin amine-coupled to a CM5 chip at ~6,000 resonance units; analytes in PBST (0.02% Tween 20) at 20 μl/min; TCRα, TCRβ and human serum albumin at 1,000 nM; TCRα and TRAC at 125, 250, 500 and 1,000 nM; kinetic and steady-state fits; conditions: both partners purified

T1 sequence (P02787 20-698): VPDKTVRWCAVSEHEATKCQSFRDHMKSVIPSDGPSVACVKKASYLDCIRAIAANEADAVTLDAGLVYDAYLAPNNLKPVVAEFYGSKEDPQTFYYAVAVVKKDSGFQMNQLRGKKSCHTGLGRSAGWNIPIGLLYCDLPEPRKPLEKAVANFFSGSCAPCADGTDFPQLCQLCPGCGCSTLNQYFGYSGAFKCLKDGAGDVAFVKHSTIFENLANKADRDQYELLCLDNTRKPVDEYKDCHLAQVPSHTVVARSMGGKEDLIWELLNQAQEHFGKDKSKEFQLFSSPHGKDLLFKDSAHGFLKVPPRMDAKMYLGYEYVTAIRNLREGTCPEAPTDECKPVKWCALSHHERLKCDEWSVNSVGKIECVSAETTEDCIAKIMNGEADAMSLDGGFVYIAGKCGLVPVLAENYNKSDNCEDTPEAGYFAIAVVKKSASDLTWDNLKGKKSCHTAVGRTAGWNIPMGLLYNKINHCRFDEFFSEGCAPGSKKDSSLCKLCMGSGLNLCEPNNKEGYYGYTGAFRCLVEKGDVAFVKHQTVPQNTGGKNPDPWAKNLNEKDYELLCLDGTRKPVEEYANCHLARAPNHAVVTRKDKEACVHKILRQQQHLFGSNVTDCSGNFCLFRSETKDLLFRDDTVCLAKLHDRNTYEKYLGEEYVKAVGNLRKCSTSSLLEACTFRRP

- Kd (transferrin [1]): 166 nM
B1: DK8 (peptide)
peptide: DMRSMDFK
notes: amino acids 50 to 57 of TRAC (UniProt P01848); also called interfering peptide DK8; designed peptide (DK8)

- Kd (transferrin [2]): 10.9 nM
B2: T cell receptor α constant (TRAC) (domain or fragment, human, UniProt P01848 1-115, looked up)
chain: IQNPDPAVYQLRDSKSSDKSVCLFTDFDSQTNVSQSKDSDVYITDKTVLDMRSMDFKSNSAVAWSNKSDFACANAFNNSIIPEDTFFPSPESSCDVKLVEKSFETDTNLNFQNLS
notes: T cell receptor alpha chain constant region (TRAC), human, UniProt P01848; TRAC protein used as analyte in SPR; construct and host may stand in the Supplementary Methods; also called constant domain (CD) of TCRα; Cα
